Reference: the supplement of paper PMC9170038

Test system: MS2 coat protein
Assay: apparent KD of MS2 coat protein; designed switch direction (-1 OFF switch, 1 ON switch): 1; higher = weaker reporter binding
How it was run: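 Designed RNA switches were transcribed on Illumina chips by stalled E. coli RNA polymerase and titrated with SNAP-549-labelled MS2 coat protein from 0.7 or 1.5 nM, doubling to 3 µM. Step length ran from 0.8–1.5 h at the lowest concentration to 10–20 min at the highest. The apparent KD is the median over clusters for each design, from curve-fitted normalised cluster fluorescence.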

[1] = Eterna round: R95, input ligand: FMN 200 uM
[2] = Eterna round: R95, input ligand: microRNA oligo, concentration not stated
[3] = Eterna round: R95, input ligand: none
[4] = input ligand: microRNA oligo, concentration not stated

| Sequence | apparent KD of MS2 coat protein [1] [nM] | apparent KD of MS2 coat protein [2] [nM] | apparent KD of MS2 coat protein [3] [nM] | apparent KD of MS2 coat protein (input ligand: FMN 200 uM) [nM] | apparent KD of MS2 coat protein [4] [nM] | apparent KD of MS2 coat protein (input ligand: none) [nM] |
| --- | --- | --- | --- | --- | --- | --- |
| AAUAAAGUCAGUAAGGAUAUCCAAAUGGCGACAUGAGGAUCACCCAUGUAAGAAACCCGACAUCGGGAGAAGGUACAUGACGAUG [Enlaorle] (puzzle: Same State 2) | 87.9 | 124 | 127 |  |  |  |
| AAUAAGUUCAGCUCGUCUUGCGCCGACUGACAUGAGGAUCACCCAUGUGGAUUCCAAGGAAUCCAUUGGCGUGUUUC [Ororer] (puzzle: Sensor for hsa-mir-208a) | 34.8 | 54.3 | 24.8 |  |  |  |
| AAUUAACAUGAGGAUCACCCAUGUCGUAUUAUGGGAGGAUAUACGUGGACCGUAGUCCGCGUAGAAGGCCUAAUUA [Mat - Same State 1 - Mod of JL - D21] (Eterna round: R96, puzzle: Same State 1) |  |  |  | 21 | 34.5 | 38.2 |
| AAUUAACAUGAGGAUCACCCAUGUCGUAUUAUGGGAGGAUAUACGUGGACCGUAGUCCGCGUAGAAGGCCUAAUUA [Mat - Same State 1 - Mod of JL - D21] (puzzle: Same State 1) |  | 34.6 |  |  |  |  |
| AAUUAAGAUCAAGGAUAUCACGUCGUUUAGACGUGAGAAGGUGAUCAUAACAUGAGGAUCACCCAUGUAUUACAUGAAUUAAUU [SSNG1/2-B3] (Eterna round: R96, puzzle: Same State NG 1) |  |  |  | 72.4 | 404 | 370 |
| AAUUAAGAUCAAGGAUAUCACGUCGUUUAGACGUGAGAAGGUGAUCCAUACAUGAGGAUCACCCAUGUAUAACAUGAAUUAAUU [SSNG1/8-B3] (Eterna round: R96, puzzle: Same State NG 1) |  |  |  | 180 | 1160 | 698 |
| AAUUAAGAUCGAGGAUAUCACGUCGAAUAGACGUGAGAAGGCGAUCAUAACAUGAGGAUCACCCAUGUAUUACAUGAAUUAAUU [SSNG1/4-B1] (Eterna round: R96, puzzle: Same State NG 1) |  |  |  | 23.6 | 22.9 | 27 |
| AAUUAAGAUCUAGGAUAUCACGUCGAUUAGACGUGAGAAGGAGAUCAUAACAUGAGGAUCACCCAUGUAUUACAUGAAUUAAUU [SSNG1/6-B2] (Eterna round: R96, puzzle: Same State NG 1) |  |  |  |  | 23.4 |  |
| AAUUAAUUAAUACAUGAGGAUCACCCAUGUAAUUAUUAGAUCAAGGAUAUCAGCUCGAUUAGAGCUGAGAAGGUGAUCACAUGU [SSNG3/18-A2] (Eterna round: R96, puzzle: Same State NG 3) |  |  |  |  | 282 |  |
| AAUUAAUUAAUACAUGAGGAUCACCCAUGUAAUUAUUAGAUCUAGGAUAUCAGCUCGUUUAGAGCUGAGAAGGAGAUCACAUGU [SSNG3/18-B3] (Eterna round: R96, puzzle: Same State NG 3) |  |  |  |  | 15.1 |  |
| AAUUAUUAACAUGAGGAUCACCCAUGUAAAACAUGGAUUAACAAGCCUUUUCGUUUUUGCUCGUCUUAUAUUAUUAA [Bojan's Design] (puzzle: Sensor for hsa-mir-208a version 2) | 167 |  | 199 |  |  |  |
| AAUUAUUAACAUGAGGAUCACCCAUGUAUAAGGGAGAAUAUUAUUAUUAUUAUUAACAAGCUUUUUGCUUGUCUCAU [Ribo-boogie] (puzzle: Sensor for hsa-mir-208a version 2) | 48.6 | 67.9 | 68.4 |  |  |  |
| AAUUGUUCCUGAGGAUAUCAGUAGUUUGCUUUUUGAGAAGGCAGUACAUGAGGAUCACCCAUGUUGUGGUUUGAUAGAAUGAUA [JR_SSNG1_Sub005] (Eterna round: R96, puzzle: Same State NG 1) |  |  |  | 184 | 101 | 180 |
| AAUUUAAUACAUGAGGAUCACCCAUGUAAAUUAAUUAAGAUCUAGGAUAUCAGCUCGAUUAGAGCUGAGAAGGAGAUCACAUGU [SSNG3/19-B2] (Eterna round: R96, puzzle: Same State NG 3) |  |  |  |  | 12 |  |
| AAUUUAAUACAUGAGGAUCACCCAUGUAAUACUAGUAAGAUCUAGGAUAUCAGCUCGUUUAGAGCUGAGAAGGAGAUCACAUGU [SSNG3/19-C3] (Eterna round: R96, puzzle: Same State NG 3) |  |  |  |  | 62.1 |  |
| ACAAGCUUUUCUGCAUUGAAAGGUUGGUUACAUGAGGAUCACCCAUGUUUUUAUGAAAAUAAUGCUCCUCGUCUUAU [JR_SHM208A_Sub093] (puzzle: Sensor for hsa-mir-208a) | 264 | 19.8 | 252 |  |  |  |
| ACAAGCUUUUUAGGAGAGAAAGGUGGGAAACAUGAGGAUCACCCAUGUAUGGUAGUGAAUAGUGGAACUCGUCUUAU [JR_SHM208A_Sub081] (puzzle: Sensor for hsa-mir-208a) | 400 | 104 | 462 |  |  |  |
| ACAAGCUUUUUAGGAGAGAAAGGUGGGAUACAUGAGGAUCACCCAUGUAUGGUAGUUAAUAGUGGACCUCGUCUUAU [JR_SHM208A_Sub082] (puzzle: Sensor for hsa-mir-208a) | 46.5 | 21.7 | 64.1 |  |  |  |
| ACAAGCUUUUUGCUCAUCUUAUGUCCGAAACAUGAGGAUCACCCAUGUAUAGAUUAUGUGUUGUUUUUGAUACAAGA [JR_SHM208A_Sub064] (puzzle: Sensor for hsa-mir-208a) | 32.1 | 24.9 | 33.1 |  |  |  |
| ACAAGCUUUUUUGUAGUGAAAGGUGGGAUACAUGAGGAUCACCCAUGUAUUGUUGUUAAUAUUUGUCCUCGUCUUAU [JR_SHM208A_Sub085] (puzzle: Sensor for hsa-mir-208a) | 31.8 | 13.9 | 36.3 |  |  |  |
| ACAUGAAAUUGAGGAUAUUUUGUACCUACAUGUGACAUGAGGAUCACCCAUGUGGUAAGUAUGAGAAAGAAGGCAAAGAUAUGU [Equivalence 11 - Jieux - Same State NG 2] (Eterna round: R96, puzzle: Same State NG 2) |  |  |  | 26.6 | 43.3 | 51 |
| ACAUGAAAUUUAGGAUAUUUUGUACCUACAUGUGACAUGAGGAUCACCCAUGUGGUAAGUAUAAGAAAGAAGGAAAAGAUAUGU [Equivalence 8 - Jieux - Same State NG 2] (Eterna round: R96, puzzle: Same State NG 2) |  |  |  | 61.1 | 41.2 | 64.9 |
| ACAUGAGAAAGAGGAUAUUUUGUACCUACAUGUGACAUGAGGAUCACCCAUGUGGUAAGUAUGAGAAAGAAGGCUUAGAUAUGU [Equivalence 13 - Jieux - Same State NG 2] (Eterna round: R96, puzzle: Same State NG 2) |  |  |  | 20.6 | 43.1 | 61.7 |
| ACAUGAGAAUGAGGAUAUGUUGUACCUACAUGUGACAUGAGGAUCACCCAUGUGGUAAGUAUGAUACAGAAGGCAUAGAUAUGU [Equivalance 62 - Jieux - Same State NG 2] (Eterna round: R96, puzzle: Same State NG 2) |  |  |  | 18.9 | 18 | 32.2 |
| ACAUGAGAAUUAGGAUAUAUAGUACCUACAUGUGACAUGAGGAUCACCCAUGUGGUAAGUAUGACAUAGAAGGAAUAGAUAUGU [Equivalance 97 - Jieux - Same State NG 2] (Eterna round: R96, puzzle: Same State NG 2) |  |  |  | 66.5 | 42.9 | 56.8 |
| ACAUGAGACGGAGGAUAUUUUGUACCUACAUGUGACAUGAGGAUCACCCAUGUGGUAAGUAUGAGAAAGAAGGCCGAGAUAUGU [Equivalence 19 - Jieux - Same State NG 2] (Eterna round: R96, puzzle: Same State NG 2) |  |  |  | 14.2 | 17.7 | 29.6 |
| ACAUGAGACUAAGGAUAUGGUGUACCUACAUGUGACAUGAGGAUCACCCAUGUGGUAAGUAUGACUCAGAAGGUAGAGAUAUGU [Equivalance 75 - Jieux - Same State NG 2] (Eterna round: R96, puzzle: Same State NG 2) |  |  |  | 37.9 | 280 | 436 |
| ACAUGAGACUCAGGAUAUGGUGUACCUACAUGUGACAUGAGGAUCACCCAUGUGGUAAGUAUGACUCAGAAGGGAGAGAUAUGU [Equivalance 76 - Jieux - Same State NG 2] (Eterna round: R96, puzzle: Same State NG 2) |  |  |  | 37.4 | 116 | 171 |
